Experimental data taken from the DeepSol protein solubility set.

Assay: soluble on expression in E. coli; label from the status in PepcDB or PDB records

For “MTGSCSDLLGFQYNNTVISSATLQETGTLTVANKPIGAHCLVKGYMDQHVSPVDGQTYQIGFEMRLPIDWNGRFLYQGNGGTDGNLVPATGQVGSGGPLTNALHDGFAIISSDAGHNASQNPMFGLDPQARINYGYGAITKLTPMAKNLIKAAYGKLPDRSYAGGTSNGGRHAMIAATRLGDQYDGILASTPGFHLPRAAAAQLYTAQQLRRVATDENDLSTALTLPERKVLAKAILDRCDALDGVTDGLVQDVEACRTAFDIHKHVTVCSSTRDGTCLSTEQIDVLANIYRGPVNSAGQALYATQPFDPGLVGSNWASWKFESSVGTARDPVAVGILFQVPPDPTVTQNSRQFALNFNFDTDYPKLSATNDVYTESSMSFMMPPDELNLDKLRNHGGKMIVVQGTADGVFSVDDTQNWYDQLLQHYKNDAKGTAPEFARFFRVPGMNHTRDGIATDQFDALTALVNWVEYGQAPDKIIATARGAGNPSGQVNTEIPQDWAPDRTRPLCPYPLIARYNGQGDLEHHHHHH”, the “soluble on expression in E. coli” value was “not soluble”.

For “SEAVLTEELDEEEQLLRRHRKEKKELQAKIQGMKNAVPKNDKKRRKQLTEDVAKLEKEMEQKHREELEQLKLTTKENKIDSVAVNISNLVLENQPPRISKAQKRREKKAALEKEREERIAEAEIENLTGARHMESEKLAQILAARQLEIKQIPSDGHCMYKAIEDQLKEKDCALTVVALRSQTAEYMQSHVEDFLPFLTNPNTGDMYTPEEFQKYCEDIVNTAAWGGQLELRALSHILQTPIEIIQADSPPIIVGEEYSKKPLILVYMRHAYGLGEHYNSVTRLVNIVTENCS”, the “soluble on expression in E. coli” value was “soluble”.

For “MGSDKIHHHHHHMTTTDTRPSPSPLQQDYQRFLLLGSRRAPYTLHVHETGYRSGTINTDALGLRYSHCAGKRFSAAEHGGASRINLLVGGSTALGIGASSDEHTVASHLSMLTGEVWLSLAGCGLNATQELMMFLTHQHRLGQLGHVVVLSGLNSLAHEALCEVLAGTNDPQHAKAYQAFLNSFSEGMQPCAPPRRQSLWRRIGQALTPPVAAPPVSWPLSPPEKRLARAADNIGRTLRQWDRLLADSHATLTFILQPLLPWCRDTLPAGEQAMLTALQQQPANFDRLLEGAFDRQLHSAFFRRIKSQADPVPCYDMNCMLDSSPVFGADLFIDRLHLNDLGNNALAKVITAKLGLAQEKHAQRKVTPIKLV”, the “soluble on expression in E. coli” value was “not soluble”.

In the case of “MNVMMQKVHGSENDFFLLDETQFERSLTAEEIEQLRIQLCSRETGLLAGADGLLLVGEGTHGTSNARMRVINSDGSEASMCGNGLRTVARYLAEKNQEKSFTVETMFADLKVRQAPNLAEEVATYQVEISPVSFEAVTIPMHLGVQTLIDEIVPALSNTIRFTAVAVPNPHLVAFVDHETLNGPEFERIATYVNNENPYFPEGINVSFVEILGKNQLFVRTYERGVGFTSACGTAMCASSLLYTLLKDGVFYEEITVKNTGGMVKTVVHETSDGSYWMELIGNATITHLIEGSLTDLLNGAFEKITITETNEQKHYQEFLQTLSQK”, the “soluble on expression in E. coli” value is reported as “not soluble”.

With “MRYTDSRKLTPETDANHKTASPQPIRRISSQTLLGPDGKLIIDHDGQEYLLRKTQAGKLLLTK” the “soluble on expression in E. coli” value was “soluble”.

For “MGSDKIHHHHHHMLRLSALGDVCNLVPTIRVLQRLWPDARITWIIGKGEHSLLAGLSGVEFIVYDKATGLAGMREVWRQLGDTRFDVLLHMQQALRASVLSLGLKADLRIGYDKARAKDWQHWFTHRQLTPHPRAHVLDSFLDFARLLGGAERVDAEPLRWDLAIPDTAYQEAARVTGDAPYIVISPCANPRLRNFRNWSAEGYAAVISHAWQEHGLRTVMTGGGSTQEQEMGARIRALCAEEAVIDAIGATSLKGLLAMLDRARMVIAPDSGPVHMANALRTPTLGLYATTNPERAAPYCWRDFVVDRYPDAVRRYLHKSPEAITWGARVRHPDAMSLIHADDVIAQFDALLNAAPSASSRPEPDHET”, the “soluble on expression in E. coli” value was “not soluble”.

In the case of “MSRPQFTSLRLSLLALAVSATLPTFAFATETMTVTATGNARSSFEAPMMVSVIDTSAPENQTATSATDLLRHVPGITLDGTGRTNGQDVNMRGYDHRGVLVLVDGVRQGTDTGHLNGTFLDPALIKRVEIVRGPSALLYGSGALGGVISYDTVDAKDLLQEGQSSGFRVFGTGGTGDHSLGLGASAFGRTENLDGIVAWSSRDRGDLRQSNGETAPNDESINNMLAKGTWQIDSAQSLSGLVRYYNNDAREPKNPQTVGASESSNPMVDRSTIQRDAQLSYKLAPQGNDWLNADAKIYWSEVRINAQNTGSSGEYREQITKGARLENRSTLFADSFASHLLTYGGEYYRQEQHPGGATTGFPQAKIDFSSGWLQDEITLRDLPITLLGGTRYDSYRGSSDGYKDVDADKWSSRAGMTINPTNWLMLFGSYAQAFRAPTMGEMYNDSKHFSIGRFYTNYWVPNPNLRPETNETQEYGFGLRFDDLMLSNDALEFKASYFDTKAKDYISTTVDFAAATTMSYNVPNAKIWGWDVMTKYTTDLFSLDVAYNRTRGKDTDTGEYISSINPDTVTSTLNIPIAHSGFSVGWVGTFADRSTHISSSYSKQPGYGVNDFYVSYQGQQALKGMTTTLVLGNAFDKEYWSPQGIPQDGRNGKIFVSYQW”, the “soluble on expression in E. coli” value is reported as “not soluble”.

In the case of “MGSDKIHHHHHHMLHRRKTYTIRPERLQEFTEFFHTYLYPLQISHGARLVGRWVNEAEDEVIAIWEYRDREHYEQVDRDVRGSTLRREAMKKRARLGKNLYIKSTEDFLTATGVYAPPRAIVSVTAYITNEAGEVLLVRNLHRGDTYEMPGGQVENHESILDAVKREVKEETGADVTIEGITGIYQNVSSHVLCVAFRGTYTGGELRPQEGETAEVGFFDLNRENIDTYIKREHFQLRTLDAMDPHYFPHALYKVRPYELISRYDGNAPSALSGQN”, the “soluble on expression in E. coli” value is reported as “not soluble”.

In the case of “FDKVKVSTNFTYTLNQNKIVSLANGAINPETGEAIEMEYYSKGTLGTSGGPTLRLYENGSMGDIYINQRLRQSPNGYIWKDPSNGSLAIENTEYRKVGSILPKYYLGWNGSVAWKGWNLGFAFTGRFGGLVVSDTQAMIDKYGVSESSAVARQAGGVWVGDSKVDAEEYYSKVTTAVGTYYTYSATNIRLSELSLSYQLPKTWFKNHVNMTLGLTGKNLWMIYCKAPYDPESTSSVTSNFYQGVDYFQQPSLRSLGFNVKLTF”, the “soluble on expression in E. coli” value is reported as “not soluble”.

In the case of “MAAQAVSLLREVARLEAPLEELRALQSVVQAVPLHELREQAAELRLRPLFSLLNQNNREQTALCVSILERLLQAVEPIHLARNLRLDLQRGLTHPDDSVKTLTLSQIGRIVENSEAVTEILNNAELLKQIVYCIGGENLSVAKAAIKSLSRISLTQAVLEALFESNLLDDLKNVMKTNDVVRYRVYELIIDISSVSSESLNYCTTSGLVTQLLKELTGEDVLVRATCIEMVTSLAYTHHGRQYLAQEGVIDQISNIIVGADSDPFSGFYLPGFVKFFGNLAVMDSPQQICERYPVFLEKVFEMADSQDPTMIGVAVDTVGILGSSVEGKQVLQKTGTRFERVLMRVGYQAKNASTELKIRCLDAVSSLLYLSPEQQTDDFLGMTESWFSSMSRDSLELFRGISNQPFPELHCAALKVFTAIADQPWAQRLMFNSPGFVEFVMDRSVEHDKASKDAKYELVKALANSKTVAEIFGNSNYLRLRAYLSEGPYYVKPVATTAVEGAD”, the “soluble on expression in E. coli” value is reported as “soluble”.

With “MSLSLNFLDFEKPIVELETKIQALRDVSRHSTSASVDLDKELEQLEKKSLELKKKIFSDLGAWQVAQLARHPQRPYTLDYLKHIFTEFDELAGDRAYADDKAIVGGIARLEGRSVMVIGHQKGRETREKVKRNFGMPKPEGYRKALRLMEMAERFNMPIITFIDTAGAYPGVGAEERGQSEAIAKNLKVMSGLKVPVICNVVGEGGSGGALAIGVGDYVNMLQYSTYSVISPEGCASILWRDSDKAPQAAEAMGLIAPRLKELELIDEIIEEPLGGAHRDHKQTAENVKATLLRQLADLDALDHENLLERRYQRLMNYGYCEGHHHHHH” the “soluble on expression in E. coli” value was “soluble”.

With “MSSPSKRREMDMMKLMMSDYKVETINDGMQEFYVEFNGPKDSLYQGGVWKIRVELPDAYPYKSPSVGFITKIYHPNVDELSGSVCLDVINQTWSPMFDLVNVFETFLPQLLLYPNPSDPLNGEAAALMMRDRPAYEQRVKEYCEKYAKPGEGSEDKSSDEELSEEEYGSDNEDDDDDDVAIAGKPDP” the “soluble on expression in E. coli” value was “not soluble”.

With “MESVYLFSSGTLKRKANTICLETESGRKYIPVENVMDIKVFGEVDLNKRFLEFLSQKRIPIHFFNREGYYVGTFYPREYLNSGFLILKQAEHYINQEKRMLIAREIVSRSFQNMVDFLKKRKVRADSLTRYKKKAEEASNVSELMGIEGNAREEYYSMIDSLVSDERFRIEKRTRRPPKNFANTLISFGNSLLYTTVLSLIYQTHLDPRIGYLHETNFRRFSLNLDIAELFKPAVVDRLFLNLVNTRQINEKHFDEISEGLMLNDEGKSLFVKNYEQALRETVFHKKLNRYVSMRSLIKMELHKLEKHLIGEQVFGSEE” the “soluble on expression in E. coli” value was “soluble”.
